Laboratory results taken from the supplement of paper PMC9170038.

Tested on: MS2 coat protein
Experiment: apparent KD of MS2 coat protein; higher = weaker reporter binding
Conditions: Eterna round: R107; input ligand: arginine 13.2 mM
Method: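 RNA-MaP round R107: designed RNA switches with theophylline, tryptophan, arginine or FMN aptamers are transcribed on-chip within common flanks. They are titrated with SNAP-549-labelled MS2 coat protein in RNA-MaP buffer (100 mM Tris pH 7.5, 80 mM KCl, 4 mM MgCl2), without ligand or with the indicated ligand. Median apparent KD per design.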

In order of rising “apparent KD of MS2 coat protein” value:
1. AAAAGAGGUGGAAGGAGCGGGAGACAUGAGGAUCACCCAUGUGAAGUUACGAAAGGUUCAGCCCAGGUAGGUCGCCAUGUCGAAA [eefemullin]  1.33 nM
2. GGUUAACAUGAGGAUCACCCAUGUCUUGAUACCAGUCGUUAUCUUGACCCUUGGCAGCAAGAUGACCGUUAGCAGCCGUCUUCUC [theeternabot_sameState_MS2_Theo_A_45]  11.9 nM
3. UCCUGCAGAGCGGCCGCCACUGUAUUGCGUGAGGAUGACCCAACAUGAGGAUCACCCAUGUUGUUUAGGACCGGGCUUGCCACGA [opmullin%]  13.7 nM
4. UUGUUGUACGGAAGGAGCGUGUAAGAUUAAGAACAUGAGGAUCACCCAUGUUUUAAGGGAACACAGGUAGGUCGCCGUGUGGUGG [11.Q]  14 nM
5. UUUUUCGCGUUUGAUACCAGCAGAGUUGUUCUGGUCUGGUACAUGAGGAUCACCCAUGUCUGCCCUUGGCAGCAAACGGGAGAAG [XTheo #30]  14.5 nM
6. AAUAAUAAGGCGGCCGCCACUAAACAUGAGGAUCACCCAUGUCUCGAGCGCUUGCAUUUGGGAAGUAGGACCGGGCCAAUAAUAA [Exclusion - Tryptophan B (Freestyle 4)]  14.5 nM
7. GCUAGCCGAAAGGCUAGCAGCGCUACAGAAGGAGCGUGCGAAAGCACAGGUAGGUCGCUGAACAUGAGCAUCAGCCAUGUUGCGC [SSAA - Alter Amptam #2 V2+NP]  14.8 nM
8. GUAUGGAAACAUACUAGGGUAUCAUGAGAUACCAGUACAGAAAUGUACCCUUGGCAGCUCUAGCAUACAUGAGGAUCACCCAUGU [Ex Theophylline A 6]  15.4 nM
9. GUGGAGACCUCGGCCGCCACUCUCCAUGAGGAUCUCCCAUGUAACAUGAGGAUCACCCAUGUGCUGAGGACCGGGAGGUCCUGAA [Same State Tryptophan B GF 19]  15.7 nM
10. AAAAUAAUGGCGGCCGCCACUAACUCAUAUACAUCAUGUACAUGAGGAUCACCCAUGUAGGUGUAUAGGACCGGGCCAUAAUUAA [39MS split4]  18.3 nM
11. ACAUGAAGAACAGCGGUGGGCGCGCUCGAUACCAGUAUUUUAACCUACCCUUGGCAGCGACAUGAGGAUCACCCAUGUGAGAUGA [XTheo A #7]  18.5 nM
12. UUUAUUAUUGACUCGUUUUGGUAUUAAGAACGAGGACCGGUACGGCCGCCACUCGUGAUAUACAUGAGGAUCACCCAUGUUAGCA [JR_Nu_SSTryptoA_Sub021]  19.4 nM
13. AAAGAACAUGAGGAUCACCCAUGUACCGAAGGAGCGGCGAAGAAGCCAGGUAGGUCGCGGAACAUGAAGCGAUUAAGAAUUAAUU  21.5 nM
14. UCUUACUUGGUAGAUACCAGCGUGUUAUCUUUCUUUUGACAUGAGGAUCACCCAUGUAUAUGCCCUUGGCAGCUGCGUAGUGUGU [#03 Same State - Theophylline B]  21.6 nM
15. AAUAAGCAGCUGCCUUCCUCAUGAGCAGAUACCAGCUAGGAAACUAGCCCUUGGCAGCUGCAACAUGAGGAUCACCCAUGUAAUA [(T)'-(M)'-(T1)-(T2)-(M1)-(M2)_Design4]  22.4 nM
16. AGUCUUAAAGGAAGGAGCGCAGUCAUAACAUGAGGAUCACCCAUGUCGAUGUGAGGGUCAUUGCAGGUAGGUCGCCUUACUAAGA [Same State - Arginine B (Freestyle 5)]  22.8 nM
17. UGGUACAUGAGGAUCACCCAUGUUCCAGAUACCAGUGUCCCGCUGCACCCUUGGCAGCUGGUGGUACAUGAGGAUCACCCAUGUG [Exclusion Theophylline A GF11]  24.3 nM
18. GUGUACAUGAGGAUCACCCAUGUCGAGUUACGAGGACCGGUACGGCCGCCACUCGGCGGCUCGACACGGAUAGCGAUGCGUUGCU [#18 Exclusion Tryptophan A]  24.6 nM
19. UCUUACUUGGUAGAUACCAGCGUGUUAUCUUUCUUUUGACAUGAGGAUCACCCAUGUAUAUGCCCUUGGCAGCUGCAUAGUGUGU [#02 Same State - Theophylline B]  26.9 nM
20. GCUAGUGGCAGAAGGAGCGACAUUAAAAGUGGUCGAUACAUGAGGAUCACCCAUGUACUAUGUCAGGUAGGUCGCUGCCACUAGC [EAB NP+V+V2 #4 +-Same Structure]  27.8 nM
21. ACAUGUUGGUGGUAUCUACGAAGGCGGAAACGAGGACCGGUACGGCCGCCACUCGGCGACAUGAGGAUCACCCAUGUGGUUAAAA [Exclusion - Tryptophan A (Freestyle 5)]  28.8 nM
22. AGCCACUCGAGUGAUCCUCACGAGUGGCUACGAGGACCGGUACGGCCGCCACUCGAAUUAACAUGAGGAUCACCCAUGUAAUAAU [Brourdmod03]  29.2 nM
23. AGUAGCUGCCGAAGGAGCGCCGUGUUCCUACAUGAGGAUCACCCAUGUAGCGUUGGGUUACGGCAGGUAGGUCGCGGCGGAUAGG [Same State - Arginine B / B]  30 nM
24. ACUGCUUUAGCGGCCGCCACUACAUGGACACUUACACUUUCUUGUUACAUGAGGAUCACCCAUGUUAGGACCGGGCUUGUACGGA [theeternabot_exclusion_MS2_Trp_B_31]  30.5 nM
25. UCCUCAUGGCAUGAUACCAGACCUAACAUGAGGAUCACCCAUGUAUCAGGCAAUUGUUACGUCCCUUGGCAGCAUGUAUGCCGAC [Theo B SS t4]  33.6 nM
26. ACAUUUAACUGAAGGAGCGUGAUAUACAUGAGGAUCACCCAUGUGUCUUUCAUGAAUAAUUCACAGGUAGGUCGCAGACUAAUGA [JR_ExcArginiB_Sub008]  40.4 nM
27. GACCUUAUCUGAAGGAGCGAGGUAAAUAGGGAUAGGAACAUGAGGAUCACCCAUGUGCGGCCUCAGGUAGGUCGCAGAUGAGAUU [Exclusion Arginine B GF28]  42 nM
28. GAUUCGCAGUCGGCCGCCACUAACAUGAGCUGCUAGUUAUUAUCACAUGAGGAUCACCCAUGUCUUAGGACCGGGACAACCUGUU [theeternabot_sameState_MS2_Trp_B_26]  48.3 nM
29. GCUGUUGCGGUGAGGUAUCCGGCUGUGGAAGGAGCGCGGAAGGCCGCAGGUAGGUCGCCACAUGAGGAUCACCCAUGUCGAUAUA [Aninati]  48.7 nM
30. AACAUGAGGAUCACCCAUGUCCCUCCCUCCCGAGGACCGGUACGGCCGCCACUCGCCCUCCCUCCCUAAGAAAGAAAGAAGAAGA [Same State - Trypopjan A]  54 nM
31. AAUAAUAACAUGGGUGCACGAGUGGCAUAACGAGGACCGGUACGGCCGCCACUCGAACAUGAGGAUCACCCAUGUAGCCACUCGA [M'-T'-T-MS2-T'' - Design 4]  55.1 nM
32. AGAGUCAGACAAAAGUCUGGCUCAGCCGAAGGAGCGUCCGAAAGGACAGGUAGGUCGCGGUUACCUGAGGAUCACCCGGGUUCCU [ArgAS 25 #OpenEnded #AlternativeMS2]  56.7 nM
33. AAAAUCCUACCUGAGGAUCACCCGGGUGAAGGAGCGCCCGAAAGGGCAGGUAGGUCGCACCUGAGGAUCACCCUGGUAAACCUAA [ArgEX 23 #DoubleMS2 #OpenEnded]  103 nM
34. AGAUUCGACACGGCCGCCACUUGUGGUGGAUUAUCCUAUGUCGAACAUGAGGAUCACCCAUGUACAAGGACCGGGUGUUGAGUCU [XTryp B #21]  156 nM
35. AACAUGAGGAUCACCCAUGUCCCAUGUGAACGAGGACCGGUACGGCCGCCACUCGACCGAGGCGGCACAUGAGGAUCACCCGCAU [whbob_SS_trypto A_2s14]  161 nM
36. UCACGGCACUGAAGGAGCGAGUUGACAAACAUGAGGAUCACCCAUGUUAUGGGUUGUUAAUCUCAGGUAGGUCGCAGUUGUCGUG [Same State Arginine B GF 21]  163 nM
